In this assay the target is CD64 (FcγRI) (human) (UniProt P12314). The assay can be described thus: cell-based or functional assay.

Several values for one entry are separate records, joined by “and”; a condition that tells them apart may be missing. Equal entries are not always repeated.

Sequence of UniProt P12314 (P12314 16-374): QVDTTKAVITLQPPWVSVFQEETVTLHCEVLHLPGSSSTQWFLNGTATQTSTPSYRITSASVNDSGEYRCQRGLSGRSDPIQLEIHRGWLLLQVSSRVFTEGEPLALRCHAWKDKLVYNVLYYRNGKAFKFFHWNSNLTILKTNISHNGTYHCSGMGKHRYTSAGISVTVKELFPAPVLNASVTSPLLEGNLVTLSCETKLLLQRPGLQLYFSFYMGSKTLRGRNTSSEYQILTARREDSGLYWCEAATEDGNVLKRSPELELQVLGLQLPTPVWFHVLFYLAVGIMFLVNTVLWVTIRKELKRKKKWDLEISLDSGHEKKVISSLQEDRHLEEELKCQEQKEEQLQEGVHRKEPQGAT

For H22(scFv)-Ang, the IC50/EC50, XTT growth inhibition, HL-60 cells stood at 10 nM; the IC50/EC50, XTT growth inhibition, U937 cells stood at 0.2 nM; the IC50/EC50, XTT growth inhibition, hM1φ is 0.29 nM and 0.108 nM.
Molecule H22(scFv)-MAP returned an IC50/EC50, XTT growth inhibition, HL-60 cells of 0.04 nM.

B1: GB-H22(scFv) (scFv)
chain: HIDDDDKIIGGHEAKPHSRPYMAFLMIWDQKSLKRCGGFLIRDDFVLTAAHCWGSSINVTLGAHNIKEQEPTQQFIPVKRAIPHPAYNPKNFSNDIMLLQLERKAKRTRAVQPLRLPSNKAQVKPGQTCSVAGWGQTAPLGKHSHTLQEVKMTVQEDRKCESDLRHYYDSTIELCVGDPEIKKTSFKGDSGGPLVCNKVAQGIVSYGRNNGMPPRACTKVSSFVHWIKKTMKRYGSKLAEHEGDAAQPAMAQVQLVESGGGVVQPGRSLRLSCSSSGFIFSDNYMYWVRQAPGKGLEWVATISDGGSYTYYPDSVKGRFTISRDNSKNTLFLQMDSLRPEDTGVYFCARGYYRYEGAMDYWGQGTPVTVSSGGGGSGGGGSGGGGSDIQLTQSPSSLSASVGDRVTITCKSSQSVLYSSNQKNYLAWYQQKPGKAPKLLIYWASTRESGVPSRFSGSGSGTDFTFTISSLQPEDIATYYCHQYLSSWTFGQGTKLEIKAAAGPHHHHHH
As to B1, the IC50/EC50, XTT growth inhibition, hM1φ is 0.414 nM and 0.14 nM.

B2: GBR201K-H22(scFv) (scFv)
chain: HIDDDDKIIGGHEAKPHSRPYMAFLMIWDQKSLKRCGGFLIRDDFVLTAAHCWGSSINVTLGAHNIKEQEPTQQFIPVKRAIPHPAYNPKNFSNDIMLLQLERKAKRTRAVQPLRLPSNKAQVKPGQTCSVAGWGQTAPLGKHSHTLQEVKMTVQEDRKCESDLRHYYDSTIELCVGDPEIKKTSFKGDSGGPLVCNKVAQGIVSYGKNNGMPPRACTKVSSFVHWIKKTMKRYAEHEGDAAQPAMAQVQLVESGGGVVQPGRSLRLSCSSSGFIFSDNYMYWVRQAPGKGLEWVATISDGGSYTYYPDSVKGRFTISRDNSKNTLFLQMDSLRPEDTGVYFCARGYYRYEGAMDYWGQGTPVTVSSGGGGSGGGGSGGGGSDIQLTQSPSSLSASVGDRVTITCKSSQSVLYSSNQKNYLAWYQQKPGKAPKLLIYWASTRESGVPSRFSGSGSGTDFTFTISSLQPEDIATYYCHQYLSSWTFGQGTKLEIKAAAGPHHHHHH
For the molecule B2, the IC50/EC50, XTT growth inhibition, HL-60 cells is 2.4 nM and 5.7 nM.

Values taken from US20170369574A1.
